# Biological target: melanocortin-4 receptor (MC4R) (UniProt P32245)
# Assay: competitive binding vs [125I]-NDP-alpha-MSH (receptor not given; MC4R by Example 3)
# Sequence of UniProt P32245 (P32245 whole entry): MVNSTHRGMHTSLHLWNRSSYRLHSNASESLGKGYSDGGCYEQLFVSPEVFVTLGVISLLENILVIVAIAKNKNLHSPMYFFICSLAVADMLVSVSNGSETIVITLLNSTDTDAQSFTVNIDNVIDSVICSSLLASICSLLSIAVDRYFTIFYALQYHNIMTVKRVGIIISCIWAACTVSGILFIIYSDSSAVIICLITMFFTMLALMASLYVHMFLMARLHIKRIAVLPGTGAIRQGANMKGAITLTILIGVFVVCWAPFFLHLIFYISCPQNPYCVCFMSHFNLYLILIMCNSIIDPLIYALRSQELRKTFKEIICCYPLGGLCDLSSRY
substance,measurement,value
melanotan II (MTII) (peptide),IC50,5 to 30 nM

# Reference: patent US20070082843A1
